In patent US20160002357A1:
Where “and” joins values, the source holds several entries; their conditions need not be identical. Equal entries are not always repeated.

Legend:
[1] = target: human soluble CD3 (human) (UniProt P07766); assay: SPR Biacore 3000, antigen immobilised
[2] = target: human soluble CD3 (human) (UniProt P07766); assay: SPR Biacore
[3] = target: human soluble CD3 (human) (UniProt P07766); assay: SPR Biacore pH 7.4
[4] = target: human soluble CD3 (human) (UniProt P07766); assay: SPR Biacore pH 7.4, average

Chain of human soluble CD3 (human) (P07766 23-126, chain 1 of 2): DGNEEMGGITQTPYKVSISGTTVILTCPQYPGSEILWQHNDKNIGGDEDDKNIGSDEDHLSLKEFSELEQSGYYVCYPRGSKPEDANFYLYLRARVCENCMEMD
Chain of human soluble CD3 (human) (P04234 22-105, chain 2 of 2, further chain): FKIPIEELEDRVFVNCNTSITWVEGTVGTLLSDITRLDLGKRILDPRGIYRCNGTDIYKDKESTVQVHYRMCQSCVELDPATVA

B1: 20 EK-DART (bispecific antibody)
chain 1: AIQMTQSPSSLSASVGDRVTITCRASQSIGKYLNWYQQIPGKAPKLLIYTASTLQTGVPSRFSGSGSGTDFTLTIVSLQPEDFATYYCQQSFNTPRTFGQGTKVEIKGGGSGGGGEVQLVESGGGLVQPGGSLRLSCAASGFTFNTYAMNWVRQAPGKGLEWVARIRSKYNNYATYYADSVKDRFTISRDDSKNSLYLQMNSLKTEDTAVYYCVRHGNFGNSYVSWFAYWGQGTLVTVSSGGCGGGKVAALKEKVAALKEKVAALKEKVAALKE
chain 2: QAVVTQEPSLTVSPGGTVTLTCRSSTGAVTTSNYANWVQQKPGQAPRGLIGGTNKRAPWTPARFSGSLLGGKAALTITGAQAEDEADYYCALWYSNLWVFGGGTKLTVLGGGGSGGGGEVQLVQSGAEVKKPGASVKVSCKASGYTFTGYYMHWVRQAPGQGLEWMGRINPNSGGTNYAQKFQGRVTMTRDTSISTAYMELSRLRSDDTAVYYCAKGSGSGAFDIWGQGTMVTVSSGGCGGGEVAALEKEVAALEKEVAALEKEVAALEK
Question: Which Kd [1] does the source give for B1 here?
Answer: 0.00519 µM

Question: What about the koff [1] of the same binder?
Answer: 0.00609 s⁻¹

Question: And the kon [1]?
Answer: 979000 M⁻¹ s⁻¹

B2: 154 EK-DART (bispecific antibody)
chain 1: QSVLTQPPSVSAAPGQKVTISCSGSSSNIGNNYVSWYQQLPGTAPKLLIYDNNKRPSGIPDRFSGSKSGTSATLGITGLQTGDEADYYCGTWDSSLSSYVFGTGTKVTVLGGGSGGGGEVQLVESGGGLVQPGGSLRLSCAASGFTFNTYAMNWVRQAPGKGLEWVARIRSKYNNYATYYADSVKDRFTISRDDSKNSLYLQMNSLKTEDTAVYYCVRHGNFGNSYVSWFAYWGQGTLVTVSSGGCGGGKVAALKEKVAALKEKVAALKEKVAALKE
chain 2: QAVVTQEPSLTVSPGGTVTLTCRSSTGAVTTSNYANWVQQKPGQAPRGLIGGTNKRAPWTPARFSGSLLGGKAALTITGAQAEDEADYYCALWYSNLWVFGGGTKLTVLGGGGSGGGGEVQLVQSGAEVKKPGASVKVSCKASGYTFTSYGISWVRQAPGQGLEWMGWISAYNGNTNYAQKLQGRVTMTTDTSTSTAYMELRSLRSDDTAVYYCATIDTATAFDIWGQGTMVTVSSGGCGGGEVAALEKEVAALEKEVAALEKEVAALEK
Question: B2 was tested. Which Kd [2] did it give?
Answer: 0.0171 µM

Question: And the koff [2]?
Answer: 0.00768 s⁻¹

Question: What about the kon [2] of the same binder?
Answer: 456000 M⁻¹ s⁻¹

B3: 165 EK-DART (bispecific antibody)
chain 1: QSVLTQPPSVSAAPGQKVTISCSGSSSNIGNNYVSWYQQLPGTAPKLLIYDNNKRPSGIPDRFSGSKSGTSATLGITGLQAGDEADYYCGTWDSSLSAYVFGTGTKVTVLGGGSGGGGEVQLVESGGGLVQPGGSLRLSCAASGFTFNTYAMNWVRQAPGKGLEWVARIRSKYNNYATYYADSVKDRFTISRDDSKNSLYLQMNSLKTEDTAVYYCVRHGNFGNSYVSWFAYWGQGTLVTVSSGGCGGGKVAALKEKVAALKEKVAALKEKVAALKE
chain 2: QAVVTQEPSLTVSPGGTVTLTCRSSTGAVTTSNYANWVQQKPGQAPRGLIGGTNKRAPWTPARFSGSLLGGKAALTITGAQAEDEADYYCALWYSNLWVFGGGTKLTVLGGGGSGGGGEVQLVQSGAEVKKPGASVKVSCKASGYTFTSYGISWVRQAPGQGLEWMGWISAYNGNTNYAQKLQGRVTMTTDTSTSTAYMELRSLRSDDTAVYYCATIDTANAFDIWGQGTMVTVSSGGCGGGEVAALEKEVAALEKEVAALEKEVAALEK
Question: With B3 as the binder, how does the Kd [2] read?
Answer: 0.0149 µM

Question: What about the koff [2] of the same binder?
Answer: 0.00417 s⁻¹

Question: What about the kon [2] of the same binder?
Answer: 278000 M⁻¹ s⁻¹

B4: 179 EK-DART (bispecific antibody)
chain 1: QSVLTQPPSVSAAPGQKVTISCSGSRSNIGNNYVSWYQQLPGTAPKLLIYDSNKRPSGIPDRFSGSKSGTSATLGITGLQTGDEADYYCGTWDSSLSSWVFGGGTKLTVLGGGSGGGGEVQLVESGGGLVQPGGSLRLSCAASGFTFNTYAMNWVRQAPGKGLEWVARIRSKYNNYATYYADSVKDRFTISRDDSKNSLYLQMNSLKTEDTAVYYCVRHGNFGNSYVSWFAYWGQGTLVTVSSGGCGGGKVAALKEKVAALKEKVAALKEKVAALKE
chain 2: QAVVTQEPSLTVSPGGTVTLTCRSSTGAVTTSNYANWVQQKPGQAPRGLIGGTNKRAPWTPARFSGSLLGGKAALTITGAQAEDEADYYCALWYSNLWVFGGGTKLTVLGGGGSGGGGEVQLVQSGAEVKKPGASVKVSCKASGYTFTSYGISWVRQAPGQGLEWMGWISAYNGNTNYAQKLQGRVTMTTDTSTSTAYMELRSLRSDDTAVYYCATIDTANAFDIWGQGTMVTVSSGGCGGGEVAALEKEVAALEKEVAALEKEVAALEK
Question: B4 was tested. Which Kd [2] did it give?
Answer: 0.0258 µM

Question: And the koff [2]?
Answer: 0.00641 s⁻¹

Question: What about the kon [2] of the same binder?
Answer: 306000 M⁻¹ s⁻¹

B5: 180 EK-DART (bispecific antibody)
chain 1: QSVVTQPPSVSAAPGQKVTISCSGSSSNIGNNYVSWYQQLPGTAPKLLIYDNNKRPSGIPDRFSGSKSGTSATLGITGLQTGDEADYYCGTWDSSLSAYVFGTGTKVTVLGGGSGGGGEVQLVESGGGLVQPGGSLRLSCAASGFTFNTYAMNWVRQAPGKGLEWVARIRSKYNNYATYYADSVKDRFTISRDDSKNSLYLQMNSLKTEDTAVYYCVRHGNFGNSYVSWFAYWGQGTLVTVSSGGCGGGKVAALKEKVAALKEKVAALKEKVAALKE
chain 2: QAVVTQEPSLTVSPGGTVTLTCRSSTGAVTTSNYANWVQQKPGQAPRGLIGGTNKRAPWTPARFSGSLLGGKAALTITGAQAEDEADYYCALWYSNLWVFGGGTKLTVLGGGGSGGGGEVQLVQSGAEVKKPGASVKVSCKASGYTFTSYGISWVRQAPGQGLEWMGWISAYNGNTNYAQKLQGRVTMTTDTSTSTAYMELRSLRSDDTAVYYCATIDTANAFDIWGQGTMVTVSSGGCGGGEVAALEKEVAALEKEVAALEKEVAALEK
Question: What does the source list for B5?
Answer: Kd [2]: 0.0159 µM; koff [2]: 0.0111 s⁻¹; kon [2]: 706000 M⁻¹ s⁻¹

B6: 178 EK-DART (bispecific antibody)
chain 1: QSVLTQPPSVSAAPGQKVTISCSGSSSNIGNNYVSWYQQLPGTAPKLLIYDNNKRPSGIPDRFSGSKSGTSATLGITGLQTGDEADYYCGTWDSSLSAVVFGGGTKLTVLGGGSGGGGEVQLVESGGGLVQPGGSLRLSCAASGFTFNTYAMNWVRQAPGKGLEWVARIRSKYNNYATYYADSVKDRFTISRDDSKNSLYLQMNSLKTEDTAVYYCVRHGNFGNSYVSWFAYWGQGTLVTVSSGGCGGGKVAALKEKVAALKEKVAALKEKVAALKE
chain 2: QAVVTQEPSLTVSPGGTVTLTCRSSTGAVTTSNYANWVQQKPGQAPRGLIGGTNKRAPWTPARFSGSLLGGKAALTITGAQAEDEADYYCALWYSNLWVFGGGTKLTVLGGGGSGGGGEVQLVQSGAEVKKPGASVKVSCKASGYTFTSYGISWVRQAPGQGLEWMGWISAYNGNTNYAQKLQGRVTMTTDTSTSTAYMELRSLRSDDTAVYYCATIDTANAFDIWGQGTMVTVSSGGCGGGEVAALEKEVAALEKEVAALEKEVAALEK
Question: Which Kd [2] does the source give for B6 here?
Answer: 0.0231 µM

Question: What about the koff [2] of the same binder?
Answer: 0.00526 s⁻¹

Question: What about the kon [2] of the same binder?
Answer: 230000 M⁻¹ s⁻¹

B7: 177 EK-DART (bispecific antibody)
chain 1: QSVLTQPPSVSAAPGQKVTISCSGSSSNIGNNYVSWYQQLPGTAPKLLIYDNNKRPSGIPDRFSGSKSGTSATLGITGLQTGDEADYYCGTWDSSLSAYVFGTGTKVTVLGGGSGGGGEVQLVESGGGLVQPGGSLRLSCAASGFTFNTYAMNWVRQAPGKGLEWVARIRSKYNNYATYYADSVKDRFTISRDDSKNSLYLQMNSLKTEDTAVYYCVRHGNFGNSYVSWFAYWGQGTLVTVSSGGCGGGKVAALKEKVAALKEKVAALKEKVAALKE
chain 2: QAVVTQEPSLTVSPGGTVTLTCRSSTGAVTTSNYANWVQQKPGQAPRGLIGGTNKRAPWTPARFSGSLLGGKAALTITGAQAEDEADYYCALWYSNLWVFGGGTKLTVLGGGGSGGGGEVQLVQSGAEVKKPGASVKVSCKASGYTFTSYGISWVRQAPGQGLEWMGWISAYNGNTNYAQKLQGRVTMTTDTSTSTAYMELRSLRSDDTAVYYCATIDTANAFDIWGQGTMVTVSSGGCGGGEVAALEKEVAALEKEVAALEKEVAALEK
Question: What does the source list for B7?
Answer: Kd [2]: 0.0199 µM; koff [2]: 0.00443 s⁻¹; kon [2]: 253000 M⁻¹ s⁻¹

B8: 153 EK-DART (bispecific antibody)
chain 1: QSVLTQPPSVSAAPGQKVTISCSGSSSNIGNNYVSWYQQLPGTAPKLLIYDNNKRPSGIPDRFSGSKSGTSATLGITGLQTGDEADYYCGTWDSSLSGVVFGGGTKLTVLGGGSGGGGEVQLVESGGGLVQPGGSLRLSCAASGFTFNTYAMNWVRQAPGKGLEWVARIRSKYNNYATYYADSVKDRFTISRDDSKNSLYLQMNSLKTEDTAVYYCVRHGNFGNSYVSWFAYWGQGTLVTVSSGGCGGGKVAALKEKVAALKEKVAALKEKVAALKE
chain 2: QAVVTQEPSLTVSPGGTVTLTCRSSTGAVTTSNYANWVQQKPGQAPRGLIGGTNKRAPWTPARFSGSLLGGKAALTITGAQAEDEADYYCALWYSNLWVFGGGTKLTVLGGGGSGGGGEVQLVQSGAEVKKPGASVKVSCKASGYTFTSYGISWVRQAPGQGLEWMGWISAYNGNTNYAQKLQGRVTMTTDTSTSTAYMELRSLRSDDTAVYYCATIDTANAFGIWGQGTMVTVSSGGCGGGEVAALEKEVAALEKEVAALEKEVAALEK
Question: With B8 as the binder, how does the Kd [3] read?
Answer: 0.0223 µM and 0.024 µM

Question: And the koff [3]?
Answer: 0.00618 s⁻¹ and 0.0068 s⁻¹

Question: What about the kon [3] of the same binder?
Answer: 277000 M⁻¹ s⁻¹ and 283000 M⁻¹ s⁻¹

Question: And the t½ [3]?
Answer: 1.76 min and 1.6 min

Question: And the Kd [4]?
Answer: 0.0232 µM

Question: What about the Kd [2] of the same binder?
Answer: 0.0157 µM

Question: And the koff [2]?
Answer: 0.00631 s⁻¹

Question: And the kon [2]?
Answer: 403000 M⁻¹ s⁻¹

B9: 34 EK-DART (bispecific antibody)
chain 1: QSVVTQPPSVSAAPGQKVTISCSGSSSNIGNNYVSWYQQLPGTAPKLLIYDNNKRPSGIPDRFSGSKSGTSATLGITGLQTGDEADYYCGTWDSSLSAWVFGGGTKLTVLGGGSGGGGEVQLVESGGGLVQPGGSLRLSCAASGFTFNTYAMNWVRQAPGKGLEWVARIRSKYNNYATYYADSVKDRFTISRDDSKNSLYLQMNSLKTEDTAVYYCVRHGNFGNSYVSWFAYWGQGTLVTVSSGGCGGGKVAALKEKVAALKEKVAALKEKVAALKE
chain 2: QAVVTQEPSLTVSPGGTVTLTCRSSTGAVTTSNYANWVQQKPGQAPRGLIGGTNKRAPWTPARFSGSLLGGKAALTITGAQAEDEADYYCALWYSNLWVFGGGTKLTVLGGGGSGGGGEVQLVQSGAEVKKPGASVKVSCKASGYTFTSYGISWVRQAPGQGLEWMGWISAYNGNTNYAQKLQGRVTMTTDTSTSTAYMELRSLRSDDTAVYYCATIDTASAFDIWGQGTMVTVSSGGCGGGEVAALEKEVAALEKEVAALEKEVAALEK
Question: For B9, which Kd [1] is on record?
Answer: 0.0228 µM

Question: And the koff [1]?
Answer: 0.00445 s⁻¹

Question: And the kon [1]?
Answer: 195000 M⁻¹ s⁻¹

B10: 33 EK-DART (bispecific antibody)
chain 1: QSVLTQPPSVSAAPGQKVTISCSGSSSNIGNNYVSWYQQLPGTAPKLLIYDNNKRPSGIPDRFSGSKSGTSATLGITGLQTGDEADYYCGTWDSSLSAYVFGTGTKVTVLGGGSGGGGEVQLVESGGGLVQPGGSLRLSCAASGFTFNTYAMNWVRQAPGKGLEWVARIRSKYNNYATYYADSVKDRFTISRDDSKNSLYLQMNSLKTEDTAVYYCVRHGNFGNSYVSWFAYWGQGTLVTVSSGGCGGGKVAALKEKVAALKEKVAALKEKVAALKE
chain 2: QAVVTQEPSLTVSPGGTVTLTCRSSTGAVTTSNYANWVQQKPGQAPRGLIGGTNKRAPWTPARFSGSLLGGKAALTITGAQAEDEADYYCALWYSNLWVFGGGTKLTVLGGGGSGGGGQMQLVQSGAEVKKPGASVKVSCKASGYTFTSYGISWVRQAPGQGLEWMGWISAYNGNTNYAQKLQGRVTMTTDTSTSTAYMELRSLRSDDTAVYYCALIGSGVAFDIWGQGTMVTVSSGGCGGGEVAALEKEVAALEKEVAALEKEVAALEK
Question: With B10 as the binder, how does the Kd [1] read?
Answer: 0.0177 µM

Question: What about the koff [1] of the same binder?
Answer: 0.00403 s⁻¹

Question: What about the kon [1] of the same binder?
Answer: 228000 M⁻¹ s⁻¹
